T1: His-DEK (UniProt P35659 1-375)
T1 sequence: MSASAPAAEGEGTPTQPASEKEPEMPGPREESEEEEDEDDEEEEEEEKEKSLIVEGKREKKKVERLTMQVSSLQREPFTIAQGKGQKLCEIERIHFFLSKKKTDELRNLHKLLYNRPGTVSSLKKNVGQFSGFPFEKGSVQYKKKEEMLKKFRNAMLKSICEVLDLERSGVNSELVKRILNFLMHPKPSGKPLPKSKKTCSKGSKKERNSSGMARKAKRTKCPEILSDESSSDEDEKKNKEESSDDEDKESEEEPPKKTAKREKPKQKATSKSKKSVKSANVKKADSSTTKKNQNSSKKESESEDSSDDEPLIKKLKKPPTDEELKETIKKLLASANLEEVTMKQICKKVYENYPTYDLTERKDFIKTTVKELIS


Legend:
His-DEK [1] = target: T1, His-DEK; assay: EMSA; LightShift Chemiluminescent EMSA Kit (Pierce), per manufacturer; buffer, salt, pH and temperature not stated; conditions: protein: recombinant; tags: His; label: biotin; blunt
His-DEK [2] = target: T1, His-DEK; assay: EMSA; abolished by 100-fold excess unlabeled DRE1; LightShift Chemiluminescent EMSA Kit (Pierce), per manufacturer; buffer, salt, pH and temperature not stated; conditions: protein: recombinant; tags: His; label: biotin; blunt

Binder	binding result (His-DEK [1])	binding result (His-DEK [2])
HRE (dsDNA) DNA 1: ACAGTGCATACGTGGGCTCCAACAGGTCCTCTTCCCTCCC DNA 2: GGGAGGGAAGAGGACCTGTTGGAGCCCACGTATGCACTGT	no binding	
DRE2 (dsDNA) DNA 1: TGGAAAGGGAGGGTTGGGGTGGGTGGGAGCCAGCCCT DNA 2: AGGGCTGGCTCCCACCCACCCCAACCCTCCCTTTCCA	no binding	
DRE1 (dsDNA) DNA 1: GGGTTGAGGGCGTTGGAGCGGGGAGAAGGCCAGGGGT DNA 2: ACCCCTGGCCTTCTCCCCGCTCCAACGCCCTCAACCC		binds
DRE1-M (dsDNA) DNA 1: GGGTTGAGGGCGGGTTCTATTTGAGAAGGCCAGGGGT DNA 2: ACCCCTGGCCTTCTCAAATAGAACCCGCCCTCAACCC	no binding	
